Reference: the supplement of paper PMC9112550, “Optimization of the antimicrobial peptide Bac7 by deep mutational scanning” (BMC Biology, 2022)
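Also: peptides expressed intracellularly from a pBAD plasmid library in pooled LB shake-flask culture, induced with 0.3% L-arabinose, DNA abundance read by NGS, three biological replicates, DESeq2 with apeglm shrinkage.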

What follows are sequences tested on Escherichia coli TOP10 (assay: shrunken log2 fold change of peptide-encoding DNA abundance (4.5 h post-induction vs induction); higher = less antimicrobial activity (less host growth inhibition)). Details: time post-induction: 4.5 h; library: site-saturation at positions 5, 18, 19, 20.
RRIRWRPPRLPRPRPRPKRHPRP was tested, and the “shrunken log2 fold change” value was 0.467.
For RRIRCRPPRLPRPRPRPTDVPRP, the “shrunken log2 fold change” value was -0.461.
With RRIRDRPPRLPRPRPRPWIMPRP the “shrunken log2 fold change” value was -0.0114.
With RRIRSRPPRLPRPRPRPLWNPRP the “shrunken log2 fold change” value was -0.25.
In the case of RRIRIRPPRLPRPRPRPHEAPRP, the “shrunken log2 fold change” value is reported as -0.396.
RRIRGRPPRLPRPRPRPPAIPRP was tested, and the “shrunken log2 fold change” value was 0.859.
RRIRFRPPRLPRPRPRPAWEPRP was tested, and the “shrunken log2 fold change” value was 0.62.
In the case of RRIRTRPPRLPRPRPRPDKQPRP, the “shrunken log2 fold change” value is reported as 0.0419.
With RRIRHRPPRLPRPRPRPPSGPRP the “shrunken log2 fold change” value was 0.771.
With RRIRYRPPRLPRPRPRPPLAPRP the “shrunken log2 fold change” value was 0.13.
For RRIRYRPPRLPRPRPRPYWKPRP, the “shrunken log2 fold change” value was -0.0135.
In the case of RRIRNRPPRLPRPRPRPIFMPRP, the “shrunken log2 fold change” value is reported as -0.116.
For RRIRMRPPRLPRPRPRPHIDPRP, the “shrunken log2 fold change” value was 0.29.
In the case of RRIRFRPPRLPRPRPRPIREPRP, the “shrunken log2 fold change” value is reported as -0.0362.
For RRIRWRPPRLPRPRPRPCMFPRP, the “shrunken log2 fold change” value was -0.244.
For RRIRRRPPRLPRPRPRPDKHPRP, the “shrunken log2 fold change” value was 0.157.
For RRIRHRPPRLPRPRPRPVCWPRP, the “shrunken log2 fold change” value was 0.268.
RRIRPRPPRLPRPRPRPSCMPRP was tested, and the “shrunken log2 fold change” value was -0.279.
For RRIRRRPPRLPRPRPRPKTDPRP, the “shrunken log2 fold change” value was 0.163.
For RRIRSRPPRLPRPRPRPSMEPRP, the “shrunken log2 fold change” value was -0.0673.
For RRIRVRPPRLPRPRPRPVWMPRP, the “shrunken log2 fold change” value was 0.52.
For RRIRMRPPRLPRPRPRPNIKPRP, the “shrunken log2 fold change” value was -0.266.
RRIRDRPPRLPRPRPRPWLLPRP was tested, and the “shrunken log2 fold change” value was 0.0241.
For RRIRDRPPRLPRPRPRPFGEPRP, the “shrunken log2 fold change” value was -0.0214.
For RRIRTRPPRLPRPRPRPPVSPRP, the “shrunken log2 fold change” value was 0.147.
With RRIRWRPPRLPRPRPRPKDPPRP the “shrunken log2 fold change” value was -0.0777.
With RRIRHRPPRLPRPRPRPFINPRP the “shrunken log2 fold change” value was -0.205.
In the case of RRIRYRPPRLPRPRPRPMIEPRP, the “shrunken log2 fold change” value is reported as 0.00164.
For RRIRKRPPRLPRPRPRPNYPPRP, the “shrunken log2 fold change” value was -0.175.
RRIRCRPPRLPRPRPRPWNNPRP was tested, and the “shrunken log2 fold change” value was -0.107.
RRIRDRPPRLPRPRPRPNWLPRP was tested, and the “shrunken log2 fold change” value was 0.0018.
For RRIRDRPPRLPRPRPRPHYTPRP, the “shrunken log2 fold change” value was -0.73.
RRIRWRPPRLPRPRPRPTLMPRP was tested, and the “shrunken log2 fold change” value was 0.479.
In the case of RRIRFRPPRLPRPRPRPRGIPRP, the “shrunken log2 fold change” value is reported as -0.123.
For RRIRNRPPRLPRPRPRPNSGPRP, the “shrunken log2 fold change” value was -0.0638.
For RRIRLRPPRLPRPRPRPGCLPRP, the “shrunken log2 fold change” value was -0.129.
RRIRHRPPRLPRPRPRPTQVPRP was tested, and the “shrunken log2 fold change” value was 0.172.
RRIRLRPPRLPRPRPRPRQVPRP was tested, and the “shrunken log2 fold change” value was -0.0496.
In the case of RRIRVRPPRLPRPRPRPNIGPRP, the “shrunken log2 fold change” value is reported as -0.0964.
For RRIRKRPPRLPRPRPRPYNHPRP, the “shrunken log2 fold change” value was -0.0988.
In the case of RRIRRRPPRLPRPRPRPYMPPRP, the “shrunken log2 fold change” value is reported as -0.186.
For RRIRFRPPRLPRPRPRPLQTPRP, the “shrunken log2 fold change” value was 0.165.
For RRIRRRPPRLPRPRPRPDQEPRP, the “shrunken log2 fold change” value was 0.0223.
In the case of RRIRIRPPRLPRPRPRPASPPRP, the “shrunken log2 fold change” value is reported as -0.0763.
With RRIRNRPPRLPRPRPRPCVWPRP the “shrunken log2 fold change” value was -0.024.
In the case of RRIRIRPPRLPRPRPRPPVFPRP, the “shrunken log2 fold change” value is reported as 0.0815.
With RRIRPRPPRLPRPRPRPKEKPRP the “shrunken log2 fold change” value was 0.264.
For RRIRLRPPRLPRPRPRPCFLPRP, the “shrunken log2 fold change” value was -0.337.
With RRIRNRPPRLPRPRPRPWLSPRP the “shrunken log2 fold change” value was 0.0232.
RRIRHRPPRLPRPRPRPEDFPRP was tested, and the “shrunken log2 fold change” value was 0.0333.
For RRIRWRPPRLPRPRPRPNEPPRP, the “shrunken log2 fold change” value was -0.000964.
RRIRQRPPRLPRPRPRPVMPPRP was tested, and the “shrunken log2 fold change” value was 0.0623.
With RRIRCRPPRLPRPRPRPIIAPRP the “shrunken log2 fold change” value was -0.494.
RRIRLRPPRLPRPRPRPQGQPRP was tested, and the “shrunken log2 fold change” value was -0.0201.
For RRIRFRPPRLPRPRPRPQEWPRP, the “shrunken log2 fold change” value was -0.149.
With RRIRARPPRLPRPRPRPGKGPRP the “shrunken log2 fold change” value was 0.158.
With RRIRGRPPRLPRPRPRPYDQPRP the “shrunken log2 fold change” value was 0.0878.
For RRIRERPPRLPRPRPRPVFQPRP, the “shrunken log2 fold change” value was -0.0545.
With RRIRNRPPRLPRPRPRPKEMPRP the “shrunken log2 fold change” value was -0.0529.
In the case of RRIRQRPPRLPRPRPRPVLAPRP, the “shrunken log2 fold change” value is reported as 0.232.
For RRIRARPPRLPRPRPRPSASPRP, the “shrunken log2 fold change” value was 0.167.
With RRIRPRPPRLPRPRPRPEQHPRP the “shrunken log2 fold change” value was 0.214.
In the case of RRIRERPPRLPRPRPRPADFPRP, the “shrunken log2 fold change” value is reported as 0.0432.
With RRIRTRPPRLPRPRPRPPGFPRP the “shrunken log2 fold change” value was 0.287.
In the case of RRIRERPPRLPRPRPRPWPRPRP, the “shrunken log2 fold change” value is reported as 0.223.
In the case of RRIRFRPPRLPRPRPRPLCRPRP, the “shrunken log2 fold change” value is reported as -0.406.
With RRIRMRPPRLPRPRPRPKWRPRP the “shrunken log2 fold change” value was 0.797.
In the case of RRIRNRPPRLPRPRPRPCITPRP, the “shrunken log2 fold change” value is reported as -0.049.
RRIRLRPPRLPRPRPRPWWPPRP was tested, and the “shrunken log2 fold change” value was 0.0144.
In the case of RRIRWRPPRLPRPRPRPSNCPRP, the “shrunken log2 fold change” value is reported as -0.0121.
For RRIRIRPPRLPRPRPRPVTEPRP, the “shrunken log2 fold change” value was -0.109.
RRIRHRPPRLPRPRPRPSQTPRP was tested, and the “shrunken log2 fold change” value was 0.067.
RRIRVRPPRLPRPRPRPYAIPRP was tested, and the “shrunken log2 fold change” value was -0.033.
In the case of RRIRMRPPRLPRPRPRPVNAPRP, the “shrunken log2 fold change” value is reported as 0.297.
With RRIRPRPPRLPRPRPRPCYWPRP the “shrunken log2 fold change” value was -0.294.
